The series has as its system Saccharomyces cerevisiae. The series can be described thus: protein stability index of tFT-peptide fusion (C-terminal peptide) (PSI (0-1 scale)); higher = more stable (slower turnover). The following applies: temperature: 30 C. The procedure:
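MPS profiling in S. cerevisiae of the yeast C-terminome library: the last 12 aa of each annotated ORF are fused to the C-terminus of a sfGFP-mCherry timer, after a GGGS linker. Cells are FACS-sorted into 8 mCherry/sfGFP bins and deep-sequenced. PSI runs from 0 (unstable) to 1 (stable); wild type and das1Δ backgrounds, two technical replicates each.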

Setting [1] is: genetic background: das1 deletion.

This is an account of results in the supplement of paper PMC10724198.

± gives the standard deviation of the averaged measurements.

Regarding ERTSLLSGETQT [YPQ2 C-terminal 12 aa], the protein stability index reads like this: under setting [1], 0.67739 ± 0.00033; (genetic background: wild type) 0.684 ± 0.014.
The matching figures for ESEYREQQQNPQ [SHQ1 C-terminal 12 aa]: 0.688 ± 0.017 and 0.686 ± 0.085.
As to ESFVECFESFIE [PBI1 C-terminal 12 aa], the protein stability index was 0.714 ± 0.03 under setting [1] and 0.682 ± 0.033 (genetic background: wild type).
The matching figures for ESGPSIVHHKCF [ACT1 C-terminal 12 aa]: 0.6875 ± 0.003 and 0.6963 ± 0.0026.
The matching figures for ESTHKEAMGEKN [MNN5 C-terminal 12 aa]: 0.648 ± 0.014 and 0.675 ± 0.016.
For the sequence EVEKIVKKVLKD [DBP5 C-terminal 12 aa], the protein stability index under setting [1] turned out to be 0.7225 ± 0.0038 and the protein stability index (genetic background: wild type) amounted to 0.6553 ± 0.0058.
The matching figures for EWTKLYAKKKPE [UBC13 C-terminal 12 aa]: 0.6853 ± 0.0049 and 0.711 ± 0.01.
The matching figures for EYEYEDDGLFER [GCD1 C-terminal 12 aa]: 0.695 ± 0.017 and 0.692 ± 0.029.
Sequence “FEGKPLYQMLKI [YAL047W-A C-terminal 12 aa]” registered a protein stability index under setting [1] of 0.638 ± 0.031 and a protein stability index (genetic background: wild type) of 0.551 ± 0.011.
The matching figures for FFFLLTSLLSPF [LCL1 C-terminal 12 aa]: 0.637 ± 0.029 and 0.592 ± 0.0065.
The matching figures for FFKQAEQEQADV [PRP11 C-terminal 12 aa]: 0.7024 ± 0.001 and 0.698 ± 0.0072.
Regarding “FFRYFTFSSSYW [YDR464C-A C-terminal 12 aa]”, the protein stability index was found to be 0.7002 ± 0.004 under setting [1] and 0.661 ± 0.022 (genetic background: wild type).
For the sequence FFSKKRPNIDSK [YOL037C C-terminal 12 aa], the protein stability index runs as follows: under setting [1], 0.696 ± 0.011; (genetic background: wild type) 0.684 ± 0.058.
The matching figures for FGTWEIVIRLLS [RIM2 C-terminal 12 aa]: 0.382 ± 0.0062 and 0.123 ± 0.018.
The matching figures for FILKAKLEWIKW [YOL075C C-terminal 12 aa]: 0.515 ± 0.018 and 0.578 ± 0.11.
The matching figures for FKQSEITLYRTR [PEP8 C-terminal 12 aa]: 0.693 ± 0.032 and 0.722 ± 0.11.
Turning to FKSGQNMLKDEL [SCJ1 C-terminal 12 aa], the protein stability index by setting is: under setting [1], 0.681 ± 0.022; (genetic background: wild type) 0.648 ± 0.0073.
The matching figures for FLFHCVHLLLSG [YDR535C C-terminal 12 aa]: 0.511 ± 0.011 and 0.4909 ± 0.003.
The matching figures for FLRNFKDNRFLQ [YOR121C C-terminal 12 aa]: 0.726 ± 0.025 and 0.6968 ± 0.004.
The matching figures for “FPLLMSEIEDFR [YNL067W-A C-terminal 12 aa]”: 0.718 ± 0.019 and 0.695 ± 0.033.
Regarding FPRNLAKSVTVE [GFA1 C-terminal 12 aa], the protein stability index under setting [1] is 0.599 ± 0.0094 and the protein stability index (genetic background: wild type) was 0.593 ± 0.011.
The matching figures for FQVVSKKKGRKH [SMY2 C-terminal 12 aa]: 0.691 ± 0.017 and 0.72 ± 0.033.
The matching figures for “FSRASCITVWLV [YPR160C-A C-terminal 12 aa]”: 0.6275 ± 0.0035 and 0.228 ± 0.027.
The matching figures for FSSEFSSDPTVN [YJL206C C-terminal 12 aa]: 0.69642 ± 0.00024 and 0.724 ± 0.034.
In the case of “FSVCCKDATEVS [YHR070C-A C-terminal 12 aa]”, the protein stability index reads like this: under setting [1], 0.6764 ± 0.0025; (genetic background: wild type) 0.682 ± 0.031.
The matching figures for FTLVDYDKKFHK [ADH7 C-terminal 12 aa]: 0.702 ± 0.043 and 0.78 ± 0.087.
The matching figures for FTNQKLAKLEVR [YMR141C C-terminal 12 aa]: 0.57877 ± 0.00025 and 0.591 ± 0.0041.
